Results as given in publication PMC3071809, “Recombinant Complement Receptor 2 Radiolabeled with [^99mTc(CO)3]^+ : A Potential New Radiopharmaceutical for Imaging Activated Complement” (PLoS ONE, 2011).

B1: recombinant Complement Receptor 2 (rCR2), Short Consensus Repeats 1 and 2 of human CR2 with the C-terminal sequence … (domain or fragment, UniProt P20023 21-154, looked up)
chain: ISCGSPPPILNGRISYYSTPIAVGTVIRYSCSGTFRLIGEKSLLCITKDKVDGTWDKPAPKCEYFNKYSSCPEPIVPGGYKIRGSTPYRHGDSVTFACKTNFSMNGNKSVWCQANNMWGPTRLPTCVSVFPLEC
notes: complement receptor type 2 (CR2, CD21), human, residues 21-154: SCR1, SCR2 and the SCR2 to SCR3 linker VFPLEC; 15.5 kDa; cloned in pET-24a (NdeI/EcoRI); also called recombinant CR2; SCR1/2 fragment; not shown: His6, C-terminal, kept
B2: ^99mTc-rCR2 (rCR2 radiolabeled with [^99mTc(CO)3]^+ on the His-tag) (domain or fragment, human, UniProt P20023 21-154, looked up)
chain: B1 chain
modifications: [^99mTc(CO)3]^+ on the C-terminal His-tag
notes: complement receptor type 2 (CR2), human, residues 21-154, as m1; m1 with the radiolabel; also called rCR2-Tc^99m; rCR2-[^99mTc(CO)3]; source: labeled with [^99mTc(CO)3(OH2)3]^+ at 37°C; not shown: His6, C-terminal, kept

Key:
[1] = target: C3d construct with a free exposed thiol (Cys17, corresponding to Cys1010 of full length C3) (human); experiment: SPR; Biacore T100, 25°C; C3d immobilised on a CM5 chip by thiol coupling of the free Cys17; rCR2 as analyte; 0.01 M HEPES pH 7.4, 0.15 M NaCl, 3 mM EDTA, 0.005% Tween 20; equilibrium analysis, Langmuir isotherm
[2] = target: T1, human C3d protein (Merck) (human, UniProt P01024 1002-1303); experiment: ELISA; C3d coated at two fold concentrations from 1.5 to 1500 nM/well in PBS pH 7.4; rCR2 or C2A at a fixed 1.5 µM in 0.05% BSA-PBS pH 7.4, 1 h, room temperature; detected with anti-His antibody; conditions: both partners purified
T1 construct: C3d fragment of complement C3, human; also called C3d antigen; immobilized C3d; source: bought: Merck, Darmstadt, Germany

[3] = target: T1, human C3d protein (Merck); experiment: radioligand binding; radioactive ELISA: C3d coated on 12 well strips at increasing two fold concentrations, ^99mTc-rCR2 added, wells gamma counted; one site specific binding model Y = Bmax*X/(Kd+X); conditions: both partners purified

T1 sequence (P01024 1002-1303): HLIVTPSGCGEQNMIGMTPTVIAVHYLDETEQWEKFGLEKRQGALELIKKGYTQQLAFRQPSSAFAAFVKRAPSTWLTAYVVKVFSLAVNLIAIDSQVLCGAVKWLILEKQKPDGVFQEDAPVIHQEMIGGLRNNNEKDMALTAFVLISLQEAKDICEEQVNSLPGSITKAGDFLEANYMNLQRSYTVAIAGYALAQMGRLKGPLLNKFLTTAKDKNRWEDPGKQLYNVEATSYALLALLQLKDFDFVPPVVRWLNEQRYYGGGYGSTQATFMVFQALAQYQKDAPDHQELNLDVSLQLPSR

Binder | Kd [1] [nM] | stoichiometry N [1] | EC50 [2] [nM] | Kd [3] [nM]
B1 | 570 | 1 | ~48.5 | –
B2 | – | – | – | 25.5
